# Laboratory results: IntAct's records for PubMed 22466964
# B1: UBX domain-containing protein 7 (Homo sapiens), O94888 (parent)
# chain: MAAHGGSAASSALKGLIQQFTTITGASESVGKHMLEACNNNLEMAVTMFLDGGGIAEEPSTSSASVSTVRPHTEEEVRAPIPQKQEILVEPEPLFGAPKRRRPARSIFDGFRDFQTETIRQEQELRNGGAIDKKLTTLADLFRPPIDLMHKGSFETAKECGQMQNKWLMINIQNVQDFACQCLNRDVWSNEAVKNIIREHFIFWQVYHDSEEGQRYIQFYKLGDFPYVSILDPRTGQKLVEWHQLDVSSFLDQVTGFLGEHGQLDGLSSSPPKKCARSESLIDASEDSQLEAAIRASLQETHFDSTQTKQDSRSDEESESELFSGSEEFISVCGSDEEEEVENLAKSRKSPHKDLGHRKEENRRPLTEPPVRTDPGTATNHQGLPAVDSEILEMPPEKADGVVEGIDVNGPKAQLMLRYPDGKREQITLPEQAKLLALVKHVQSKGYPNERFELLTNFPRRKLSHLDYDITLQEAGLCPQETVFVQERN
# B2: UBX domain-containing protein 5 (Saccharomyces cerevisiae), Q06682 (parent)
# chain: MSEGKVDEFMAITGADDAAIATQFIEMADGNLNTAISLFFENGGAALLSSNNTPTPSNSTPMAPTSVDSDADAQLAERLQREAYQQQQPDQDYVRPPDEARHEVLTETSGFPISYGGIGGRFEPLHRVNDMFDEGRPESIFNQRLDDTNTNTYINDNSSDSLDSEEENDDDEYEYVEEPVIELDEDGNIKEYTKLVRKPKTISKEQKLALLFRPPFSIMSKLDLDAAKQKARAKQKWIMINIQDSGIFQCQALNRDLWSSRPVKTIIKENFVFLQYQYESRNAQPYLQFYHLNNKDDLPHIAILDPITGERVKQWNRVVPIPEQFISEINEFLASFSLDPKVPNPTVNEPLPKVDPTTLTEEQQMELAIKESLNNNSSKSNQEEVPSTGEEQKRVQEPDPFSTIEARVHPEPPNKPGITTRIQIRTGDGSRLVRRFNALEDTVRTIYEVIKTEMDGFADSRFTLNDHQREDLIDKLNMTIADAGLKNSSLLLEKLDPEIE
# partner: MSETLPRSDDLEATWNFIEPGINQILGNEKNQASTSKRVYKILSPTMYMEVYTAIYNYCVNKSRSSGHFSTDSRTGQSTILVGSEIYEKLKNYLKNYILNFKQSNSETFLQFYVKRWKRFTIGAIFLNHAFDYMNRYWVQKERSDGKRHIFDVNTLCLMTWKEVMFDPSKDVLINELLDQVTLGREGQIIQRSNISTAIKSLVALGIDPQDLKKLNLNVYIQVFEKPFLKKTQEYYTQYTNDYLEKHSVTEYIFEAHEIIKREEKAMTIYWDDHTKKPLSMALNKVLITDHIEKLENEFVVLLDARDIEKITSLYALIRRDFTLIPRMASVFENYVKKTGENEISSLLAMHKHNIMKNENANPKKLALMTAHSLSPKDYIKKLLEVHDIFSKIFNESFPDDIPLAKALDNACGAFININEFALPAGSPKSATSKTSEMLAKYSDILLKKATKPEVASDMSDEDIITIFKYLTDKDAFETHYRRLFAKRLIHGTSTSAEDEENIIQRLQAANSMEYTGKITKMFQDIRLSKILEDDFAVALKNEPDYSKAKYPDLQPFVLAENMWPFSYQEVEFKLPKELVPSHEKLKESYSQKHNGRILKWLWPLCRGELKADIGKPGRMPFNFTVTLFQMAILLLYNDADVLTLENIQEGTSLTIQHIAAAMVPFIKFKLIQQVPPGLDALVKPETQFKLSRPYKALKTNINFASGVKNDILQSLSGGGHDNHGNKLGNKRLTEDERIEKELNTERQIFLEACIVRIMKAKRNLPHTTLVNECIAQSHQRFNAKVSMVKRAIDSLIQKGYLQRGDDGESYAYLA
# B3: Cullin-2 (Homo sapiens), Q13617 (parent)
# chain: MSLKPRVVDFDETWNKLLTTIKAVVMLEYVERATWNDRFSDIYALCVAYPEPLGERLYTETKIFLENHVRHLHKRVLESEEQVLVMYHRYWEEYSKGADYMDCLYRYLNTQFIKKNKLTEADLQYGYGGVDMNEPLMEIGELALDMWRKLMVEPLQAILIRMLLREIKNDRGGEDPNQKVIHGVINSFVHVEQYKKKFPLKFYQEIFESPFLTETGEYYKQEASNLLQESNCSQYMEKVLGRLKDEEIRCRKYLHPSSYTKVIHECQQRMVADHLQFLHAECHNIIRQEKKNDMANMYVLLRAVSTGLPHMIQELQNHIHDEGLRATSNLTQENMPTLFVESVLEVHGKFVQLINTVLNGDQHFMSALDKALTSVVNYREPKSVCKAPELLAKYCDNLLKKSAKGMTENEVEDRLTSFITVFKYIDDKDVFQKFYARMLAKRLIHGLSMSMDSEEAMINKLKQACGYEFTSKLHRMYTDMSVSADLNNKFNNFIKNQDTVIDLGISFQIYVLQAGAWPLTQAPSSTFAIPQELEKSVQMFELFYSQHFSGRKLTWLHYLCTGEVKMNYLGKPYVAMVTTYQMAVLLAFNNSETVSYKELQDSTQMNEKELTKTIKSLLDVKMINHDSEKEDIDAESSFSLNMNFSSKRTKFKITTSMQKDTPQEMEQTRSAVDEDRKMYLQAAIVRIMKARKVLRHNALIQEVISQSRARFNPSISMIKKCIEVLIDKQYIERSQASADEYSYVA
# partner: B1 chain
# Variants of: B1
# Settings: with cul2_human CUL2, Q13617
row,effect of a mutation on the interaction,Variant
1,disrupting interaction strength,A293Q
2,disrupting interaction strength,E286R;L290E;A293Q

# Variants of: B2
# Settings: with cdc53_yeast CDC53, Q12018
row,effect of a mutation on the interaction,Variant
1,disrupting interaction strength,E361R;M365E;A368Q
2,disrupting interaction strength,A368Q

# Variants of: B3
# Settings: with ubxn7_human UBXN7, O94888
row,effect of a mutation on the interaction,Variant
1,disrupting interaction strength,K689R
